Measurements reported in PMC4273445 (eLife, 2014).
pKd: −log10 of the molar value.

Columns and labels:
Assay in all cases: SPR
[1] = target: fHbp 1.P13 (N. meningitidis) (UniProt E6MV22)
[2] = target: fHbp 1.P292 (N. meningitidis) (UniProt E6MV22)
[3] = target: fHbp 1.P37 (N. meningitidis) (UniProt E6MV22)
[4] = target: fHbp 1.P61 (N. meningitidis) (UniProt E6MV22)
[5] = target: fHbp 1.P9 (N. meningitidis) (UniProt E6MV22)
[6] = target: fHbp 3.P84 (N. meningitidis) (UniProt E6MV22)
[7] = target: fHbp V1.1 Asp181 to Ala (N. meningitidis)
[8] = target: fHbp V1.1 Gln193 to Ala (N. meningitidis)
[9] = target: fHbp V1.1 Glu109 to Ala (N. meningitidis)
[10] = target: fHbp V1.1 Glu183 to Ala (N. meningitidis)
[11] = target: fHbp V1.1 His184 to Ala (N. meningitidis)
[12] = target: fHbp V1.1 His203 to Ala (N. meningitidis)
[13] = target: fHbp V1.1 Ile147 to Ala (N. meningitidis)
[14] = target: fHbp V1.1 Ile154 to Ala (N. meningitidis)
[15] = target: fHbp V1.1 Leu289 to Ala (N. meningitidis)
[16] = target: fHbp V1.1 Lys191 to Ala (N. meningitidis)
[17] = target: fHbp V1.1 Lys92 to Ala (N. meningitidis)
[18] = target: fHbp V1.1 Ser182 to Ala (N. meningitidis)
[19] = target: fHbp V1.1 Ser185 to Ala (N. meningitidis)
[20] = target: fHbp V1.1 Ser274 to Ala (N. meningitidis)
[21] = target: fHbp V1.1 Ser302 to Ala (N. meningitidis)
[22] = target: fHbp V2.21 Arg (at V1 Arg145) to Ala (N. meningitidis)
[23] = target: fHbp V2.21 Asn (at V1 Asn108) to Ala (N. meningitidis)
[24] = target: fHbp V2.21 Asn (at V1 Gln180) to Ala (N. meningitidis)
[25] = target: fHbp V2.21 Asp (at V1 Glu183) to Ala (N. meningitidis)
[26] = target: fHbp V2.21 Gln (at V1 Gln103) to Ala (N. meningitidis)
[27] = target: fHbp V2.21 Glu (at V1 Gly267) to Ala (N. meningitidis)
[28] = target: fHbp V2.21 His (at V1 His248) to Ala (N. meningitidis)
[29] = target: fHbp V2.21 Ile (at V1 Ile147) to Ala (N. meningitidis)
[30] = target: fHbp V2.21 Ile (at V1 Ile179) to Ala (N. meningitidis)
[31] = target: fHbp V2.21 Ser (at V1 Ser104) to Ala (N. meningitidis)
[32] = target: fHbp V2.21 Val (at V1 Val149) to Ala (N. meningitidis)
[33] = target: fHbp V3.28 Asn (at V1 Gln180) to Ala (N. meningitidis)
[34] = target: fHbp V3.28 Asp (at V1 Asp150) to Ala (N. meningitidis)
[35] = target: fHbp V3.28 Asp (at V1 Gln103) to Ala (N. meningitidis)
[36] = target: fHbp V3.28 Asp (at V1 Glu183) to Ala (N. meningitidis)
[37] = target: fHbp V3.28 Gln (at V1 Arg145) to Ala (N. meningitidis)
[38] = target: fHbp V3.28 Gln (at V1 Lys107) to Ala (N. meningitidis)
[39] = target: fHbp V3.28 His (at V1 His203) to Ala (N. meningitidis)
[40] = target: fHbp V3.28 Ile (at V1 Ile154) to Ala (N. meningitidis)
[41] = target: fHbp V3.28 Ile (at V1 Ile179) to Ala (N. meningitidis)
[42] = target: fHbp V3.28 Leu (at V1 Leu156) to Ala (N. meningitidis)
[43] = target: fHbp V3.28 Leu (at V1 Phe174) to Ala (N. meningitidis)
[44] = target: fHbp V3.28 Lys (at V1 Lys268) to Ala (N. meningitidis)
[45] = target: fHbp V3.28 Lys (at V1 Lys306) to Ala (N. meningitidis)
[46] = target: fHbp V3.28 Pro (at V1 Ser182) to Ala (N. meningitidis)
[47] = target: fHbp V3.28 Ser (at V1 Gln193) to Ala (N. meningitidis)
[48] = target: fHbp V3.28 Thr (at V1 Ser185) to Ala (N. meningitidis)

CFH67, CCP domains 6 and 7 of complement factor H, sequence (P08603 321-443): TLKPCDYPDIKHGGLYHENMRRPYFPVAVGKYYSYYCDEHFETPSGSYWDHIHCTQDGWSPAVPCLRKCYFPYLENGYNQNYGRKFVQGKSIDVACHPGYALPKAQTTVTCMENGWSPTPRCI

Substance “CFH67, CCP domains 6 and 7 of complement factor H (from UniProt P08603 321-443) (domain or fragment)” has a pKd [1] of 7.97, a pKd [2] of 8.11 and a pKd [3] of 8.95. The pKd [4] was 8.64, the pKd [5] was 8.31 and the pKd [6] was 8.58. It also gave a pKd [7] of 8.38, a pKd [8] of 8.18 and a pKd [9] of 8.53. It also gave a pKd [10] of 8.15, a pKd [11] of 8.03 and a pKd [12] of 8.74. For the same substance, the pKd [13] was 7.76, the pKd [14] was 8.11 and the pKd [15] was 8.84. The pKd [16] was 8.19, the pKd [17] was 8.36 and the pKd [18] was 8.36. It also gave a pKd [19] of 8.51, a pKd [20] of 7.95 and a pKd [21] of 9.23. It also gave a pKd [22] of 9.39, a pKd [23] of 8.42 and a pKd [24] of 8.21. For the same substance, the pKd [25] was 8.37, the pKd [26] was 8.22 and the pKd [27] was 8.79. The pKd [28] was 8.72, the pKd [29] was 8.45 and the pKd [30] was 7.92. For the same substance, the pKd [31] was 8.60, the pKd [32] was 8.16 and the pKd [33] was 8.07. It also gave a pKd [34] of 8.36, a pKd [35] of 8.57 and a pKd [36] of 8.22. For the same substance, the pKd [37] was 9.21, the pKd [38] was 7.33 and the pKd [39] was 8.63. It also gave a pKd [40] of 7.84, a pKd [41] of 8.00 and a pKd [42] of 7.54. The pKd [43] was 8.32, the pKd [44] was 8.58 and the pKd [45] was 7.97. For the same substance, the pKd [46] was 8.51, the pKd [47] was 8.38 and the pKd [48] was 8.35.
Substance “CFHR3_(12), the first two (N-terminal) CCP domains of complement factor H-related 3 (from UniProt Q02985 19-330) (domain or fragment)” has a pKd [1] of 7.27, a pKd [2] of 7.50 and a pKd [3] of 8.12. The pKd [4] was 7.58, the pKd [5] was 7.39 and the pKd [6] was 8.22. It also gave a pKd [7] of 7.28, a pKd [8] of 6.80 and a pKd [9] of 7.55. For the same substance, the pKd [10] was 7.09, the pKd [11] was 6.93 and the pKd [12] was 7.49. It also gave a pKd [13] of 6.76, a pKd [14] of 6.83 and a pKd [15] of 7.74. It also gave a pKd [16] of 7.04, a pKd [17] of 7.14 and a pKd [18] of 7.08. The pKd [19] was 7.11, the pKd [20] was 7.36 and the pKd [21] was 7.76. The pKd [22] was 8.54, the pKd [23] was 8.37 and the pKd [24] was 8.23. The pKd [25] was 8.35, the pKd [26] was 8.40 and the pKd [27] was 8.67. For the same substance, the pKd [28] was 8.45, the pKd [29] was 8.09 and the pKd [30] was 8.11. It also gave a pKd [31] of 8.31, a pKd [32] of 8.24 and a pKd [33] of 8.10. It also gave a pKd [34] of 8.42, a pKd [35] of 8.55 and a pKd [36] of 8.31. For the same substance, the pKd [37] was 9.36, the pKd [38] was 7.60 and the pKd [39] was 8.46. For the same substance, the pKd [40] was 7.86, the pKd [41] was 8.16 and the pKd [42] was 7.28. The pKd [43] was 8.32, the pKd [44] was 8.49 and the pKd [45] was 8.03. For the same substance, the pKd [46] was 8.49, the pKd [47] was 8.52 and the pKd [48] was 8.42.
